Experimental data taken from patent publication US8344120B2, “Nucleic acid molecules encoding rage fusion proteins” (TransTech Pharma, Inc., priority 2006, dated 2013).
Several values for one entry are separate records, joined by “and”; a condition that tells them apart may be missing. Identical values can stand only once. Like-named read-outs stand apart in the source and are kept apart here.

Experiments:
[1] = cited from earlier work
[2] = normal and diabetic rats; cited from earlier work
mouse model of AD = assay: APP transgenic mouse model of AD; format: in vivo, mice; details: treated for 3 months, qod i.p.; versus vehicle and human IgG1
Protocol: Experiments were performed to evaluate whether TTP-4000 could affect amyloid formation and cognitive dysfunction in a mouse model of AD. The experiments utilized transgenic mice expressing the human Swedish mutant amyloid precursor protein (APP) under the control of the PDGF-B chain promoter. Over time, these mice generate high levels of the RAGE ligand, amyloid beta (Aβ).
The APP mice (male) used in this experiment were designed by microinjection of the human APP gene (with the Swedish and London mutations) into mouse eggs under the control of the platelet-derived growth factor B (PDGF-B) chain gene promoter. The mice were generated on a C57BL/6 background and were developed by Molecular Therapeutics Inc. Animals were fed ad libitum and maintained by brother sister mating. The mice generated from this construct develop amyloid deposits starting at 6 months of age. Animals were aged for 6 months and then maintained for 90 days and sacrificed for amyloid quantification.
APP transgenic mice were administered vehicle or TTP4000 every other day [qod (i.p.)] for 90 days starting at 6 months of age. At the end of the experiment, animals were sacrificed and examined for Aβ plaque burden in the brain (i.e., plaque number). A 6-month control APP group was used to determine the baseline of amyloid deposits. In addition, at the end of the study, the animals were subjected to behavioral (Morris water maze) analysis. The investigators were blinded to the study compounds. Samples were given to the mice at 0.25 ml/mouse/every other day.
For histological examination, the animals were anesthetized with an intraperitoneal injection (IP) of sodium pentobarbital (50 mg/kg). The animals were transcardially perfused with 4° C., phosphate-buffered saline (PBS) followed by 4% paraformaldehyde. The brains were removed and placed in 4% paraformaldehyde over night. The brains were processed to paraffin and embedded. Ten serial 30-μm thick sections through the brain were obtained. Sections were subjected to primary antibody overnight at 4° C. (Aβ peptide antibody) in order to detect the amyloid deposits in the brain of the transgenic animals (Guo et al., J. Neurosci., 22:5900-5909 (2002)). Sections were washed in Tris-buffered saline (TBS) and secondary antibody was added and incubated for 1 hour at room temperature. After washing, the sections were incubated as instructed in the Vector ABC Elite kit (Vector Laboratories) and stained with […] (DAB). The reactions were stopped in water and cover-slipped after treatment with xylene. The amyloid area in each section was determined with a computer-assisted image analysis system, consisting of a Power Macintosh computer equipped with a Quick Capture frame grabber card, Hitachi CCD camera mounted on an Olympus microscope and camera stand. NIH Image Analysis Software, v. 1.55 was used. The images were captured and the total area of amyloid was determined over the ten sections. A single operator blinded to treatment status performed all measurements. Summing the amyloid volumes of the sections and dividing by the total number of sections was done to calculate the amyloid volume.
For quantitative analysis, an enzyme-linked immunosorbent assay (ELISA) was used to measure the levels of human total Aβ, Aβtotal and Aβ1-42 in the brains of APP transgenic mice (Biosource International, Camarillo, Calif.). Aβtotal and Aβ1-42 were extracted from mouse brains by guanidine hydrochloride and quantified as described by the manufacturer. […]

amyloid-beta (Abeta) = target: T1, amyloid-beta (Abeta) (Homo sapiens, UniProt P05067); assay: In vitro ligand binding ELISA, immobilized amyloid-beta; details: ligand 5 micrograms per well; fusion protein at increasing dilutions, 37° C. one hour
T1 construct: Amyloid Beta (1-40) from Biosource; purchased Biosource
T1 sequence (P05067 672-711 limits assumed): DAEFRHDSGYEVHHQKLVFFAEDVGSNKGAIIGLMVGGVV
Protocol: (§1) For example, the RAGE fusion protein may be used in a binding assay to identify potential RAGE ligands. In one example embodiment of such a binding assay, a known RAGE ligand may coated onto a solid substrate (e.g., Maxisorb plates) at a concentration of about 5 micrograms per well, where each well contains a total volume of about 100 microliters (4). The plates may be incubated at 4° C. overnight to allow the ligand to absorb or bind to the substrate. Alternatively, shorter incubation periods at higher temperature (e.g., room temperature) may be used. […] The RAGE fusion protein bound to the immobilized ligand may be detected in a variety of ways. […] The bound complex may be detected by adding the alkaline phosphatase substrate, para-nitrophenylphosphate (PNPP), and measuring conversion of PNPP to para-nitrophenol (PNP) as an increase in absorbance at 405 nm. […] In the absence of ligand (i.e., coating with only BSA) there was no increase in absorbance. […] Binding was detected by the addition of an immunodetection complex containing a monoclonal mouse anti-human IgG1 diluted 1:11,000 to a final assay concentration (FAC) of 21 ng/100 μL, a biotinylated goat anti-mouse IgG diluted 1:500, to a FAC of […], and an avidin-linked alkaline phosphatase. […]

amphoterin (Ampho) = target: T2, amphoterin (Ampho) (Homo sapiens, UniProt P09429); assay: In vitro ligand binding ELISA, immobilized amphoterin; details: ligand 5 micrograms per well; fusion protein at increasing dilutions, 37° C. one hour
T2 sequence (P09429 1-215): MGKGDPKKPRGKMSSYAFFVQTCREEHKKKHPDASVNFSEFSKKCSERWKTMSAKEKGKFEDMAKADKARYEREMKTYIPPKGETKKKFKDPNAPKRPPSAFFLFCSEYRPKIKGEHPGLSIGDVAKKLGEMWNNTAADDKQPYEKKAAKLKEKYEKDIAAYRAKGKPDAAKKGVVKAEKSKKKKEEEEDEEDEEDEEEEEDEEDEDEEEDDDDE
Protocol: as §1

S100b (S100) = target: T3, S100b (S100) (Homo sapiens, UniProt P04271); assay: In vitro ligand binding ELISA, immobilized S100b; details: ligand 5 micrograms per well; fusion protein at increasing dilutions, 37° C. one hour
T3 sequence (P04271 1-92): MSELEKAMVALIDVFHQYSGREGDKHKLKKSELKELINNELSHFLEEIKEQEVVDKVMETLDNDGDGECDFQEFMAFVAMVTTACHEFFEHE
Protocol: as §1

[3] = system: recurrent diabetes in syngeneic NOD transplant model; assay: Syngeneic islet transplantation in NOD mice; format: in vivo
Source text: Spontaneous autoimmune non-obese diabetic mice (NOD/LtJ) (12-25 weeks old) served as recipients for islet cells, while young pre-diabetic NOD/LtJ mice (6-7 weeks old) served as donors in syngeneic islet transplantation. Islets for transplantation were isolated as described above in Section A (Allogeneic Islet Transplantation). Diabetic NOD/LtJ mice received islet grafts within 2 days of the diagnosis of diabetes. 500-600 freshly isolated islets (approximately 550 islet equivalents) from donor mice were picked up with an infusion set and transplanted into the subcapular space of the right kidney. Test compounds were administered as soon as the islets were transplanted and continued for approximately 8 weeks. […] Islet graft function was monitored by serial blood glucose measurements daily for the first 2 weeks after islet transplantation, followed by every other day thereafter. Reversal of diabetes was defined as blood glucose less than 200 mg/dl on two consecutive measurements. Percentage graft loss was determined when blood glucose exceeded 250 mg/dl on two consecutive measurements.

[4] = 300 ug LD + 100 ug qod ip, syngeneic islets in NOD mice

human sRAGE: human soluble RAGE (V, C1 and C2 domains)
half-life ([1]; assessed by retention of immunoreactivity sRAGE): less than 2 hours
half-life in plasma [1]: about 2 hours

sRAGE: soluble RAGE: the RAGE protein that does not include the transmembrane region or the cytoplasmic tail; species not stated at the place [reference compound]
half-life in plasma [1]: only a few hours

B1: rodent sRAGE: rodent soluble RAGE (protein, UniProt Q62151 23-340, looked up)
extracellular domain: GQNITARIGEPLVLSCKGAPKKPPQQLEWKLNTGRTEAWKVLSPQGGPWDSVARILPNGSLLLPATGIVDEGTFRCRATNRRGKEVKSNYRVRVYQIPGKPEIVDPASELTASVPNKVGTCVSEGSYPAGTLSWHLDGKLLIPDGKETLVKEETRRHPETGLFTLRSELTVIPTQGGTHPTFSCSFSLGLPRRRPLNTAPIQLRVREPGPPEGIQLLVEPEGGIVAPGGTVTLTCAISAQPPPQVHWIKDGAPLPLAPSPVLLLPEVGHEDEGTYSCVATHPSHGPQESPPVSIRVTETGDEGPAEGSVGESGLGTLA
modifications: extracellular domain
notes: rodent soluble RAGE
half-life [2]: approximately 20 hours

B2: mouse sRAGE: mouse soluble RAGE used as comparator in the AD mouse model (protein, UniProt Q62151 23-340, looked up)
extracellular domain: B1 extracellular domain
modifications: extracellular domain
notes: mouse soluble RAGE used as comparator in the AD mouse model
Aβ plaques in the brain (mouse model of AD): fewer Aβ plaques
cognitive dysfunction (Morris water maze) (mouse model of AD): less cognitive dysfunction

B3: TTP-3000: three domain RAGE fusion protein: human RAGE N-terminal sequence (to position 136) linked to human IgG Fc (γ1) without hinge; SEQ ID NO: 35-37, 57 (protein)
chain: QNITARIGEPLVLKCKGAPKKPPQRLEWKLNTGRTEAWKVLSPQGGGPWDSVARVLPNGSLFLPAVGIQDEGIFRCQAMNRNGKETKSNYRVRVYQIPGKPEIVDSASELTAGPSVFLFPPKPKDTLMISRTPEVTCVVVDVSHEDPEVKFNWYVDGVEVHNAKTKPREEQYNSTYRVVSVLTVLHQDWLNGKEYKCKVSNKALPAPIEKTISKAKGQPREPQVYTLPPSRDELTKNQVSLTCLVKGFYPSDIAVEWESNGQPENNYKTTPPVLDSDGSFFLYSKLTVDKSRWQQGNVFSCSVMHEALHNHYTQKSLSLSPGK
modifications: non-natural residues
binding to immobilized amyloid-beta (increase in absorbance at 405 nm) (amyloid-beta (Abeta)): specifically interact
binding to immobilized amphoterin (increase in absorbance at 405 nm) (amphoterin (Ampho)): specifically interact
binding to immobilized S100b (increase in absorbance at 405 nm) (S100b (S100)): specifically interact
day of graft loss for each animal [3, 4]: 42 days and 41 days and 34 days and 32 days and 30 days and 44 days and 46 days
day of graft loss, Mean [3, 4]: 38.43 days
time before detection of graft failure, in words ([3]; versus animals not treated at all): increase in the time before detection of graft failure
